Laboratory results as given in PMC5031558 (2016).

How the values were obtained:
Assay in all cases: FP, FITC-Ahx peptide
OTULIN_PIM = target: T1, OTULIN_PIM (Homo sapiens (Human), UniProt Q96BN8)
T1 chain: AEHEEDMYRAADEIEKEKE

SPATA2_PIM = target: T2, SPATA2_PIM (Homo sapiens (Human), UniProt Q9UM82)
T2 chain: DVDLYTDSEPR

p97_PIM = target: T3, p97_PIM (Homo sapiens (Human), UniProt P55072)
T3 chain: TEDNDDDLYG

Row | Binder | Kd (OTULIN_PIM) | Kd (SPATA2_PIM) | Kd (p97_PIM)
1 | SPATA2_PUB (protein) MDTKFKDDLFRKYVQFHESKVDTTTSRQRPGSDECLRVAASTLLSLHKVDPFYRFRLIQFYEVVESSLRSLSSSSLRALHGAFSMLETVGINLFLYPWKKEFRSIKTYTGPFVYYVKSTLLEEDIRAILSCMGYTPELGTAYKLRELVETLQVKMVSFELFLAKVECEQMLEIHSQVKDKGYSELDIVSERKSSAEDVRGCSDALRRRAEGRE | > 100 µM | > 100 µM | > 100 µM
2 | HOIP_PUB (protein) MPGEEEERAFLVAREELASALRRDSGQAFSLEQLRPLLASSLPLAARYLQLDAARLVRCNAHGEPRNYLNTLSTALNILEKYGRNLLSPQRPRYWRGVKFNNPVFRSTVDAVQGGRDVLRLYGYTEEQPDGLSFPEGQEEPDEHQVATVTLEVLLLRTELSLLLQNTHPRQQALEQLLEDKVED | – | 0.36 µM | 10.2 µM
3 | PNGase_PUB (protein) GSASPAVAELCQNTPETFLEASKLLLTYADNILRNPNDEKYRSIRIGNTAFSTRLLPVRGAVECLFEMGFEEGETHLIFPKKASVEQLQKIRDLIAIER | – | > 100 µM | 2.1 µM
4 | UBXN6_PUB (protein) STDPVAASIMKIYTFNKDQDRVKLGVDTIAKYLDNIHLHPEEEKYRKIKLQNKVFQERINCLEGTHEFFEAIGFQKVLLPAQDQEDPEEFYVLSETTLAQPQSLERHKEQLLAAE | – | > 100 µM | 27.1 µM
